Substitutions are numbered along the chain they refer to.
T1: human Fcγ receptor IIA, H167 variant (human, UniProt P12318 36-218)
T1 sequence (looked up): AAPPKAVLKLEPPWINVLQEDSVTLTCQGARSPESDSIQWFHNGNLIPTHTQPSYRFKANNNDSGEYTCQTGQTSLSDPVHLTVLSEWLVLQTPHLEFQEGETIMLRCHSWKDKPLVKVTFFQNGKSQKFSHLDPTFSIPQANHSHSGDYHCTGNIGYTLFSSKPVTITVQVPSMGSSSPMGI

T2: human Fcγ receptor IIA, R167 variant (human, UniProt P12318 36-218)
T2 construct: also called Type IIA R167
T2 sequence (looked up): T1 sequence (looked up) with H132R

T3: human Fcγ receptor IIB/C (human, UniProt P31994 46-217)
T3 sequence (looked up): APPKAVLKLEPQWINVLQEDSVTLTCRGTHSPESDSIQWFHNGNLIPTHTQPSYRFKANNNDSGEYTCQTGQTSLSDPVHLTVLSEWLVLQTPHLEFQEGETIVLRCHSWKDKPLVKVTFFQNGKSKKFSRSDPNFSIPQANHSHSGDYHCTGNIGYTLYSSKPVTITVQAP

B1: TSC266 Anti PSMA scFv x Anti CD3 scFv ADAPTIR (bispecific antibody)
chain: DIQMTQSPSAMSASVGDRVTITCRASKSISKYLAWFQQKPGKVPKLRIHSGSTLQSGVPSRFSGSGSGTEFTLTISSLQPEDFATYYCQQHIEYPWTFGQGTKVEIKRGGGGSGGGGSGGGGSQVQLVQSGAEVKKPGASVKVSCKASGYTFTDYYMHWVRQAPGQGLEWMGYFNPYNDYTRYAQKFQGRVTMTRDTSISTAYMELSSLRSDDTAVYYCARSDGYYDAMDYWGQGTTVTVSSSEPKSSDKTHTCPPCPAPEAAGAPSVFLFPPKPKDTLMISRTPEVTCVVVDVSHEDPEVKFNWYVDGVEVHNAKTKPREEQYNSTYRVVSVLTVLHQDWLNGKAYACAVSNKALPAPIEKTISKAKGQPREPQVYTLPPSRDELTKNQVSLTCLVKGFYPSDIAVEWESNGQPENNYKTTPPVLDSDGSFFLYSKLTVDKSRWQQGNVFSCSVMHEALHNHYTQKSLSLSPGQRHNNSSLNTGTQMAGHSPNSQVQLVESGGGVVQPGRSLRLSCKASGYTFTRSTMHWVRQAPGQGLEWIGYINPSSAYTNYNQKFKDRFTISADKSKSTAFLQMDSLRPEDTGVYFCARPQVHYDYNGFPYWGQGTPVTVSSGGGGSGGGGSGGGGSAQDIQMTQSPSSLSASVGDRVTMTCSASSSVSYMNWYQQKPGKAPKRWIYDSSKLASGVPARFSGSGSGTDYTLTISSLQPEDFATYYCQQWSRNPPTFGGGTKLQITSSS
notes: The anti-PSMA domain is that of PSMA01012 and the anti-CD3 domain is DRA222; also called unoptimized parent construct; TSC266 control (PSMA × CD3 bispecific protein)
B2: PSMA01107 Anti-PSMA scFv x Fc x linker x Anti CD3 scFv; Anti PSMA scFv x Fc (bispecific antibody)
chain 1: QVQLVQSGAEVKKPGASVKVSCKASGYTFTDYYMHWVRQAPGQGLEWMGYFNPYNDYTRYAQKFQGRVTMTRDTSTSTVYMELSSLRSEDTAVYYCARSDGYYDAMDYWGQGTTVTVSSGGGGSGGGGSGGGGSGGGGSDIQMTQSPSSLSASVGDRVTITCRASKSISKYLAWYQQKPGKAPKLLIHSGSSLESGVPSRFSGSGSGTEFTLTISSLQPDDFATYYCQQHIEYPWTFGQGTKVEIKEPKSSDKTHTCPPCPAPPAAAPSVFLFPPKPKDTLMISRTPEVTCVVVDVSHEDPEVKFNWYVDGVEVHNAKTKPREEQYNSTYRVVSVLTVLHQDWLNGKEYKCAVSNKALPAPIEKTISKAKGQPREPQVYTLPPSRDELTKNQVSLWCLVKGFYPSDIAVEWESNGQPENNYKTTPPVLDSDGSFFLYSKLTVDKSRWQQGNVFSCSVMHEALHNHYTQKSLSLSPGGGGSPSQVQLVQSGAEVKKPGASVKVSCKASGYTFTRSTMHWVRQAPGQGLEWIGYINPSSAYTNYAQKFQGRVTLTADKSTSTAYMELSSLRSEDTAVYYCASPQVHYDYNGFPYWGQGTLVTVSSGGGGSGGGGSGGGGSGGGGSDIQMTQSPSSLSASVGDRVTITCRASSSVSYMNWYQQKPGKAPKRWIYDSSKLASGVPSRFSGSGSGTDFTLTISSLQPEDFATYYCQQWSRNPPTFGQGTKVEIKRS
chain 2: QVQLVQSGAEVKKPGASVKVSCKASGYTFTDYYMHWVRQAPGQGLEWMGYFNPYNDYTRYAQKFQGRVTMTRDTSTSTVYMELSSLRSEDTAVYYCARSDGYYDAMDYWGQGTTVTVSSGGGGSGGGGSGGGGSGGGGSDIQMTQSPSSLSASVGDRVTITCRASKSISKYLAWYQQKPGKAPKLLIHSGSSLESGVPSRFSGSGSGTEFTLTISSLQPDDFATYYCQQHIEYPWTFGQGTKVEIKEPKSSDKTHTCPPCPAPPAAAPSVFLFPPKPKDTLMISRTPEVTCVVVDVSHEDPEVKFNWYVDGVEVHNAKTKPREEQYNSTYRVVSVLTVLHQDWLNGKEYKCAVSNKALPAPIEKTISKAKGQPREPQVYTLPPSRDELTKNQVSLSCAVKGFYPSDIAVEWESNGQPENNYKTTPPVLDSDGSFFLVSKLTVDKSRWQQGNVFSCSVMHEALHNHYTQKSLSLSPG
notes: Heterodimer, bivalent for PSMA and monovalent for CD3 (VH-VL scFv at the C-terminus); also called PSMA1107
B3: PSMA01108 Anti-PSMA scFv x Fc x linker x Anti CD3 scFv; Anti PSMA scFv x Fc (bispecific antibody)
chain 1: QVQLVQSGAEVKKPGASVKVSCKASGYTFTDYYMHWVRQAPGQGLEWMGYFNPYNDYTRYAQKFQGRVTMTRDTSTSTVYMELSSLRSEDTAVYYCARSDGYYDAMDYWGQGTTVTVSSGGGGSGGGGSGGGGSGGGGSDIQMTQSPSSLSASVGDRVTITCRASKSISKYLAWYQQKPGKAPKLLIHSGSSLESGVPSRFSGSGSGTEFTLTISSLQPDDFATYYCQQHIEYPWTFGQGTKVEIKEPKSSDKTHTCPPCPAPPAAAPSVFLFPPKPKDTLMISRTPEVTCVVVDVSHEDPEVKFNWYVDGVEVHNAKTKPREEQYNSTYRVVSVLTVLHQDWLNGKEYKCAVSNKALPAPIEKTISKAKGQPREPQVYTLPPSRDELTKNQVSLWCLVKGFYPSDIAVEWESNGQPENNYKTTPPVLDSDGSFFLYSKLTVDKSRWQQGNVFSCSVMHEALHNHYTQKSLSLSPGGGGSPSDIQMTQSPSSLSASVGDRVTITCRASSSVSYMNWYQQKPGKAPKRWIYDSSKLASGVPSRFSGSGSGTDFTLTISSLQPEDFATYYCQQWSRNPPTFGQGTKVEIKGGGGSGGGGSGGGGSGGGGSQVQLVQSGAEVKKPGASVKVSCKASGYTFTRSTMHWVRQAPGQGLEWIGYINPSSAYTNYAQKFQGRVTLTADKSTSTAYMELSSLRSEDTAVYYCASPQVHYDYNGFPYWGQGTLVTVSS
chain 2: B2 chain 2
notes: also called PSMA1108; PSAM01108

Legend:
[1] = target: T1, human Fcγ receptor IIA, H167 variant; assay: SPR (Biacore T200), construct amine-coupled, Fcγ receptor titrated 375-6000 nM, 1:1 fit
Method: (§1) The Fc region incorporated into anti-PSMA bispecific constructs contained mutations intended to reduce or abolish binding to common human and cynomolgus Fc gamma receptors. SPR experiments were conducted at 25° C. in HBS-EP+ with 0.2% BSA buffer on a Biacore T200 system to evaluate the impact of these mutations on binding. For these experiments, three flow cells of a CM5 sensor chip were immobilized with anti-PSMA bispecifics by standard amine coupling to a response level of ˜2000 RU. A blank immobilization was performed on flow cell #1 for purposes of background signal subtraction. Both human and cynomolgus monkey Fcγ receptors (purchased from R&D Systems) were diluted in HBS-EP+ with 0.2% BSA to 4-6 μM and then flowed as analytes at 30 μL/min for 120 seconds followed by a 240 second dissociation step. No regeneration step was required. Blank-subtracted sensorgrams were visually inspected for binding to each of the Fcγ receptor proteins. […] Attenuated binding to Fcγ receptors IIA (both polymorphic variants) and IIB/C was observed. PSMA01107 and PSMA01108 share the same Fc amino acid sequence and therefore equivalent Fcγ receptor binding behavior was expected.
(§2) TSC266 (PSMA×CD3 bispecific antibody) and another protein containing a wild-type IgG1 Fc sequence were also analyzed for comparison. Sensorgrams obtained from kinetic SPR measurements were analyzed by the double subtraction method in the Biacore T200 evaluation software. Kinetic parameters were derived from a one-to-one binding fit model and reported below in Table 8. Both TSC266 and PSMA01107 show reduced binding compared to a wild type IgG1 Fc.

[2] = target: T2, human Fcγ receptor IIA, R167 variant; assay: as above
Method: as §1, §2

human Fcγ receptor IIB/C = target: T3, human Fcγ receptor IIB/C; assay: as above
Method: as §1, §2

[3] = target: T4, Human PSMA ECD-AFH (TSC033), recombinant dimeric PSMA ECD (human, UniProt Q04609 44-750); assay: SPR (Biacore), recombinant dimeric PSMA ECD
T4 construct: SEC-purified dimer; also called HuPSMA-AFH; Avi-His-Human PSMA ECD
Method: Mouse anti-human IgG (GE, BR-1008-39) at 25 μg/ml in 10 mM sodium acetate pH 5.0 was immobilized at a density of ˜2,000-4,000 response units (RU) onto each flow cell of a CM5 research-grade sensor chip (GE) by standard amine coupling chemistry. Each anti-PSMA protein at approximately 40 nM in dPBS with 0.2% BSA buffer was captured in a flow cell with the immobilized anti-human IgG at a flow rate of […] for up to 30 seconds, leaving one flow cell surface unmodified as the reference. Using a multi-cycle kinetics mode, a buffer blank and […] different concentrations of ECD ranging from 1 nM to 243 nM were sequentially injected through each flow cell at 30 μL/min with association times varying from 300-600 seconds and dissociation times varying from 600-1200 seconds. Regeneration was achieved by injection of 3 M MgCl₂ at a flow rate of 30 μL/min for up to 40 seconds followed by dPBS with 0.2% BSA buffer stabilization for 1 min.
The KD was determined for a set of PSMA×CD3 bispecific proteins binding to recombinant dimeric PSMA ECD using SPR. In comparison to the constructs analyzed in Table 3, which all had the anti-PSMA scFv in the VL-VH orientation, the constructs in Table 11 have sequences with the reverse the order of the variable domains. The constructs below utilize the PSMA01023 anti-PSMA sequence as a basis.

[4] = target: T5, recombinant human FcRn/b2M complex (human, UniProt P55899 24-297; P61769 21-119, limits assumed); assay: SPR at pH 6.0, hFcRn/b2M amine-coupled, construct 1-81 nM as analyte, steady-state affinity model
T5 construct: also called hFcRn/b2M; neonatal Fc receptor
Method: Recombinant FcRn/b2M protein was generated via transient transfection of HEK-293 cells with a bi-cistronic vector containing the genes for both FcRn and […]. The complex was purified using IMAC chromatography and subsequently buffer exchanged into PBS buffer after verifying purity of the IMAC eluate by analytical SEC. Purified hFcRn/b2M at 5 μg/ml in 10 mM sodium acetate (pH 5.0) was immobilized on a CM5 chip by direct amine coupling chemistry to a level of ˜400 RU. A reference flow cell was left blank.
Different concentrations of the Fc variant protein (1-81 nM by 3-fold dilutions in HBS-EP+ with 0.2% BSA running buffer at pH 6.0) including running buffer as blank were injected in randomized order at 30 μL/min for 180 seconds followed by a 180 second dissociation period. Optimal regeneration was achieved by two injections of HBS-EP+ with 0.2% BSA at pH 7.5 at a flow rate of […] for 30 seconds followed by running buffer stabilization for 1 minute.
Sensorgrams obtained from kinetic SPR measurements were analyzed by the double subtraction method. […] Buffer reference was subtracted from analyte binding responses, and the final double-referenced data were analyzed with Biacore T200 Evaluation software (2.0, GE), globally fitting data to derive kinetic parameters. […]

T4 sequence (Q04609 other isoform, or with tags, fused parts or gaps): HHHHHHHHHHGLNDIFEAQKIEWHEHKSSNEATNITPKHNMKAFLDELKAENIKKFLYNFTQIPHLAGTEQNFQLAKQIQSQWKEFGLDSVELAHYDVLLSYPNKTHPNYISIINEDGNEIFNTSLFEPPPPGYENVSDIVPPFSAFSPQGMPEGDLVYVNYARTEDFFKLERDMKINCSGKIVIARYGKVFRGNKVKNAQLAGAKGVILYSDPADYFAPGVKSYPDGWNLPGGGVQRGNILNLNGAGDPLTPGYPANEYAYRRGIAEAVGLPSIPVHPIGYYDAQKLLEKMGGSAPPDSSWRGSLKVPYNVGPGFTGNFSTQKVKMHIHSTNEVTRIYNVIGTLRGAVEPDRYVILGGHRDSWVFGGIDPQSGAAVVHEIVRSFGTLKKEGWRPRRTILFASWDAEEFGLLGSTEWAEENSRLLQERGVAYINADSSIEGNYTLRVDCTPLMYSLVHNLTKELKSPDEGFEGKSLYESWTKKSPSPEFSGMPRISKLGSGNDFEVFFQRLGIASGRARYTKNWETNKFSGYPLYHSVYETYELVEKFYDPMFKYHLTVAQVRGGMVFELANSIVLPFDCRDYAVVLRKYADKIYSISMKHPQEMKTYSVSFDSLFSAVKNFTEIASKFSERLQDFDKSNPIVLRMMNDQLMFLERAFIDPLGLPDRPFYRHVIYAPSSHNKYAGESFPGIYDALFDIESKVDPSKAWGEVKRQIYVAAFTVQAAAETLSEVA
T5 sequence (P55899 24-297 limits assumed, chain 1 of 2): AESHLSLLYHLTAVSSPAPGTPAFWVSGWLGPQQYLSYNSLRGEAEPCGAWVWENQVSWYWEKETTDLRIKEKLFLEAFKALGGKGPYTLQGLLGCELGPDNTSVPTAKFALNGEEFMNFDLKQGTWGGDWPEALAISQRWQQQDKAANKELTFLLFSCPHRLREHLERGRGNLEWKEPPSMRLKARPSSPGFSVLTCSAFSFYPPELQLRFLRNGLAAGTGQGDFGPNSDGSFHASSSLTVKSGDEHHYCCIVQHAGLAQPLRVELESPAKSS
T5 sequence (P61769 21-119 limits assumed, chain 2 of 2): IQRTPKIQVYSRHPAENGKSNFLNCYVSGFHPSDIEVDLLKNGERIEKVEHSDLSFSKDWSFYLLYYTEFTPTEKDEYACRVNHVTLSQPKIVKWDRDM

Row | Binder | Kd [1] [µM] | Kd [2] [µM] | Kd (human Fcγ receptor IIB/C) [µM] | Kd [3] [µM] | koff [3] [s⁻¹] | kon [3] [M⁻¹ s⁻¹] | Kd [4] [µM]
1 | B1 | 20 | 1.5 | 2.7 |  |  |  | 
2 | B2 | 19.9 | 5.3 | 6.5 | 0.0034 | 8.5e-05 | 29000 | 0.059
3 | B3 |  |  |  | 0.0031 | 9e-05 | 29000 | 0.027

From patent US20240301086A1 (APTEVO RESEARCH AND DEVELOPMENT, published 2024)
